The results in this text go back to IntAct's records for PubMed 19850925.

To fix the notation:
B1: Complement factor H (Homo sapiens), P08603 (parent)
chain: MRLLAKIICLMLWAICVAEDCNELPPRRNTEILTGSWSDQTYPEGTQAIYKCRPGYRSLGNVIMVCRKGEWVALNPLRKCQKRPCGHPGDTPFGTFTLTGGNVFEYGVKAVYTCNEGYQLLGEINYRECDTDGWTNDIPICEVVKCLPVTAPENGKIVSSAMEPDREYHFGQAVRFVCNSGYKIEGDEEMHCSDDGFWSKEKPKCVEISCKSPDVINGSPISQKIIYKENERFQYKCNMGYEYSERGDAVCTESGWRPLPSCEEKSCDNPYIPNGDYSPLRIKHRTGDEITYQCRNGFYPATRGNTAKCTSTGWIPAPRCTLKPCDYPDIKHGGLYHENMRRPYFPVAVGKYYSYYCDEHFETPSGSYWDHIHCTQDGWSPAVPCLRKCYFPYLENGYNQNYGRKFVQGKSIDVACHPGYALPKAQTTVTCMENGWSPTPRCIRVKTCSKSSIDIENGFISESQYTYALKEKAKYQCKLGYVTADGETSGSITCGKDGWSAQPTCIKSCDIPVFMNARTKNDFTWFKLNDTLDYECHDGYESNTGSTTGSIVCGYNGWSDLPICYERECELPKIDVHLVPDRKKDQYKVGEVLKFSCKPGFTIVGPNSVQCYHFGLSPDLPICKEQVQSCGPPPELLNGNVKEKTKEEYGHSEVVEYYCNPRFLMKGPNKIQCVDGEWTTLPVCIVEESTCGDIPELEHGWAQLSSPPYYYGDSVEFNCSESFTMIGHRSITCIHGVWTQLPQCVAIDKLKKCKSSNLIILEEHLKNKKEFDHNSNIRYRCRGKEGWIHTVCINGRWDPEVNCSMAQIQLCPPPPQIPNSHNMTTTLNYRDGEKVSVLCQENYLIQEGEEITCKDGRWQSIPLCVEKIPCSQPPQIEHGTINSSRSSQESYAHGTKLSYTCEGGFRISEENETTCYMGKWSSPPQCEGLPCKSPPEISHGVVAHMSDSYQYGEEVTYKCFEGFGIDGPAIAKCLGEKWSHPPSCIKTDCLSLPSFENAIPMGEKKDVYKAGEQVTYTCATYYKMDGASNVTCINSRWTGRPTCRDTSCVNPPTVQNAYIVSRQMSKYPSGERVRYQCRSPYEMFGDEEVMCLNGNWTEPPQCKDSTGKCGPPPPIDNGDITSFPLSVYAPASSVEYQCQNLYQLEGNKRITCRNGQWSEPPKCLHPCVISREIMENYNIALRWTAKQKLYSRTGESVEFVCKRGYRLSSRSHTLRTTCWDGKLEYPTCAKR
partner: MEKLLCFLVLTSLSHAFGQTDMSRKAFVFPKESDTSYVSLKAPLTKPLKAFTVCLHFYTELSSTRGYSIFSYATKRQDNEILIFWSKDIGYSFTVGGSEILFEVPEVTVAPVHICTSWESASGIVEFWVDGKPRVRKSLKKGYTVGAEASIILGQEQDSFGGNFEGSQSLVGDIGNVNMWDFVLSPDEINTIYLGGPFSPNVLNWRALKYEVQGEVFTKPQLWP

Variants of B1 are the subject of the experiment. The note with it: with crp_human CRP.
With Y402H, the “effect of a mutation on the interaction” value is “decreasing interaction strength”.
